Experimental data: the supplement of paper PMC12042874
± gives the uncertainty stated by the source.

Test: amyloid nucleation score (Sup35N fusion, yeast selection) (log enrichment); library NNK2; higher = more nucleation; inactive = no reads after selection
Procedure, shortened: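 Three technical output replicates were used for random libraries. Psi-negative yeast expressing peptides of 20 random codons fused to Sup35N were induced with 100 μM copper sulfate for 24 hours and grown 7 days at 30°C on medium lacking adenine and uracil, and input and output plasmid inserts were Illumina-sequenced, excluding sequences with under 100 input reads. The nucleation score is the DiMSum log enrichment of output over input reads, centred on the mode score of non-aggregating sequences.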

Question: With YNMIYYQLNTMLVHDMIKYG as the substance, how does the amyloid nucleation score read?
Answer: 3.56 ± 0.073

Question: With QMAINAGRRRRHAEYGLRNS as the substance, how does the amyloid nucleation score read?
Answer: 0.684 ± 0.57

Question: Which amyloid nucleation score does the source give for RTFAKVLKSSYQRNLPSTDV here?
Answer: 0.267 ± 0.24

Question: Which amyloid nucleation score does the source give for RMCLSVVNWSSRSHRSFHQP here?
Answer: 3.81 ± 0.051

Question: Which amyloid nucleation score does the source give for RKLGYFLRLRKKATHGRLLV here?
Answer: 5.5 ± 0.067

Question: For KPWFVVDRKNFRSNSAPWLG, which amyloid nucleation score is on record?
Answer: 0.073 ± 0.29

Question: For GRGERCKGSKIGCSRKAKID, which amyloid nucleation score is on record?
Answer: 0.98 ± 0.3

Question: Which amyloid nucleation score does the source give for YGSCGQRKN here?
Answer: 0.519 ± 0.3

Question: With TGYLVWFG as the substance, how does the amyloid nucleation score read?
Answer: 0.951 ± 0.3

Question: For TRPLFTFRAMVDTRIHVFPM, which amyloid nucleation score is on record?
Answer: 0.201 ± 0.8

Question: Which amyloid nucleation score does the source give for KGVLSGTWGGIRRIMTHVHD here?
Answer: 0.004 ± 0.36

Question: For TLLWYCTIADRNSNVRMVAS, which amyloid nucleation score is on record?
Answer: 0.966 ± 0.24

Question: For VGFSNGLDFDAVFNMKCQQW, which amyloid nucleation score is on record?
Answer: -0.965 ± 0.41

Question: With KPHGGGSRLGCRGKWLTILL as the substance, how does the amyloid nucleation score read?
Answer: 1.29 ± 0.32

Question: For CTCTDTEDKWVKSGYSRGAH, which amyloid nucleation score is on record?
Answer: 2.22 ± 0.079

Question: With VHGRGNLKA as the substance, how does the amyloid nucleation score read?
Answer: 0.032 ± 0.33

Question: Which amyloid nucleation score does the source give for CNRGLKFAVGFKLLTIPTSL here?
Answer: inactive

Question: With LFASALFRMVSAFLEVAIL as the substance, how does the amyloid nucleation score read?
Answer: 0.722 ± 0.43

Question: With TFFIMEIFDFC as the substance, how does the amyloid nucleation score read?
Answer: 1.8 ± 0.15

Question: For PNLIGLLVGLRVNSWSVAIT, which amyloid nucleation score is on record?
Answer: 0.632 ± 0.21

Question: For FHSLRQLFMNTGVL, which amyloid nucleation score is on record?
Answer: inactive

Question: Which amyloid nucleation score does the source give for WVVRPPDTLVLDETRVGSGM here?
Answer: 0.699 ± 0.34

Question: Which amyloid nucleation score does the source give for NPALSSWAEGSTP here?
Answer: 0.299 ± 0.61

Question: Which amyloid nucleation score does the source give for KWVGQLTVVMWLKCNPFCFE here?
Answer: 0.257 ± 0.64

Question: Which amyloid nucleation score does the source give for HIVIGSFD here?
Answer: inactive

Question: Which amyloid nucleation score does the source give for CDVFMQAKIASVMGYDVQRA here?
Answer: -0.225 ± 0.41

Question: For FYPWDSVCEFSLGCMSNPQA, which amyloid nucleation score is on record?
Answer: 0.158 ± 0.3

Question: With YTNSMTHAYTVLWRYMSPTN as the substance, how does the amyloid nucleation score read?
Answer: 3.52 ± 0.084

Question: With VSFNGSVGMS as the substance, how does the amyloid nucleation score read?
Answer: -0.907 ± 1.1

Question: Which amyloid nucleation score does the source give for VDRMVDIMCTTKKMIHAF here?
Answer: 1.45 ± 0.4

Question: Which amyloid nucleation score does the source give for EDSPKFKGGPGIYHSVVLVG here?
Answer: 0.394 ± 0.27

Question: For REAMTCIFDLKYAGLASVWW, which amyloid nucleation score is on record?
Answer: -0.532 ± 1

Question: With RVSTEVFCSLLVGTHLGRGP as the substance, how does the amyloid nucleation score read?
Answer: 4.24 ± 0.13

Question: Which amyloid nucleation score does the source give for RLFLSSNST here?
Answer: -1.49 ± 0.54

Question: With NVGTEFVWIPYFYSAS as the substance, how does the amyloid nucleation score read?
Answer: 0.716 ± 0.66

Question: Which amyloid nucleation score does the source give for VRPNSLRHILASLCFLGGEE here?
Answer: 7.416 ± 0.032

Question: With CYGLYPEDLLCMYGKLDLPR as the substance, how does the amyloid nucleation score read?
Answer: 0.229 ± 0.61

Question: With IVCIWNTDVLIGKWTHLSWS as the substance, how does the amyloid nucleation score read?
Answer: 0.883 ± 0.27

Question: With MCCPRSNFGYPFHVNLDMWG as the substance, how does the amyloid nucleation score read?
Answer: -0.186 ± 0.55

Question: Which amyloid nucleation score does the source give for GRVRKSHTVGSACNILYSCA here?
Answer: 1.32 ± 0.29

Question: With SIIVLRLLY as the substance, how does the amyloid nucleation score read?
Answer: 0.523 ± 0.51

Question: Which amyloid nucleation score does the source give for NIFNRA here?
Answer: inactive

Question: For GRSGIFCLPCMLCKFY, which amyloid nucleation score is on record?
Answer: 6 ± 0.064

Question: With FFLYFVFCF as the substance, how does the amyloid nucleation score read?
Answer: 2.67 ± 0.085

Question: With ISLIFCNSTRIYKFLLMFSW as the substance, how does the amyloid nucleation score read?
Answer: inactive

Question: For IYFPP, which amyloid nucleation score is on record?
Answer: -0.689 ± 0.4

Question: Which amyloid nucleation score does the source give for WKFRNN here?
Answer: inactive

Question: With TFYSLGLNISMFSLPGLAGY as the substance, how does the amyloid nucleation score read?
Answer: 0.683 ± 0.35

Question: With FTASFFP as the substance, how does the amyloid nucleation score read?
Answer: 0.05 ± 0.26

Question: For DRRGQQVLGPACRGCWFWPD, which amyloid nucleation score is on record?
Answer: 0.305 ± 1

Question: For KVESVKHRQNKGFYCWLVRN, which amyloid nucleation score is on record?
Answer: -1.25 ± 0.75

Question: For FNRVLVPRIKNTWILYCYFI, which amyloid nucleation score is on record?
Answer: inactive

Question: With SNKHCWWLDCKHLRIMPRCD as the substance, how does the amyloid nucleation score read?
Answer: -0.363 ± 0.37

Question: For SFFQSVMPYHLVYLGQILLN, which amyloid nucleation score is on record?
Answer: -1.25 ± 0.34

Question: With EMVSLCSSRFRRMMGACLGT as the substance, how does the amyloid nucleation score read?
Answer: 1.39 ± 0.21

Question: For ESFAFELTVLHIS, which amyloid nucleation score is on record?
Answer: 1.11 ± 0.38

Question: With MTALATRRCHPLYISA as the substance, how does the amyloid nucleation score read?
Answer: -0.661 ± 0.42

Question: With FVLNYLI as the substance, how does the amyloid nucleation score read?
Answer: 0.709 ± 0.17

Question: For VCYKYRTCYIYISFRSNFST, which amyloid nucleation score is on record?
Answer: -1.04 ± 1.1

Question: With RARIWALGYSLEEIRRGLED as the substance, how does the amyloid nucleation score read?
Answer: 3.19 ± 0.11

Question: With YFFFIVLDLYLMSCFGVVCE as the substance, how does the amyloid nucleation score read?
Answer: -1.13 ± 0.76

Question: With EADLYSTAIQLDK as the substance, how does the amyloid nucleation score read?
Answer: -0.313 ± 0.44

Question: Which amyloid nucleation score does the source give for RWSYLYSKEVH here?
Answer: -1.28 ± 0.64

Question: With LLTCTYMQF as the substance, how does the amyloid nucleation score read?
Answer: -0.124 ± 0.54

Question: With LLIREMEHLFVEAKVENLRE as the substance, how does the amyloid nucleation score read?
Answer: 0.531 ± 0.33

Question: Which amyloid nucleation score does the source give for TMMSQVGMDR here?
Answer: 0.377 ± 0.34

Question: Which amyloid nucleation score does the source give for WSVYKVLYCLTGFRFQRSRL here?
Answer: inactive

Question: For HSGLSGTILGWLIFKVEGEE, which amyloid nucleation score is on record?
Answer: 0.007 ± 0.42

Question: With KDVCY as the substance, how does the amyloid nucleation score read?
Answer: 1.31 ± 0.23

Question: Which amyloid nucleation score does the source give for LHAHYWCRVSKEPCCWCKMG here?
Answer: 1.02 ± 0.49
